We go through 3 substances from patent US20250051455A1.

Assay [1] concerns the target human HLA-G expressed on cells (JEG3 natural; SKOV3 HLA-G+ and PA-TU-8902 HLA-G+ transfectants) (human) (UniProt P17693). In words: flow cytometry, JEG3 cells pre-incubated with antibody (40 µg/ml final); competitor ILT2-Fc chimera. (In general: A flow cytometer gives signals particle by particle.)
Assay [2] concerns the target recombinant soluble human HLA-G β2M MHC class I complex, monomer (human). The assay can be described thus: SPR, reference antibody against monomeric wt HLA-G. (In general: In SPR one partner is held on a chip, and binding of the other changes the refractive index at the surface.)
Assay [3] concerns the target recombinant soluble human HLA-G β2M MHC class I complex, dimer (human). In words: competition ELISA, one antibody concentration; competitor coated ILT2-Fc. On the technique in general: In an ELISA, binding on a coated surface is turned into a signal by an enzyme label.
The target in assay [4] is recombinant soluble human HLA-G β2M MHC class I complex, trimer (human). The description is as above.
Assay [5] deals with recombinant soluble human HLA-G β2M MHC class I complex, monomer (human). The assay is described as above.
The target of assay [6] is recombinant soluble human HLA-G β2M MHC class I complex, dimer (human). The assay can be described thus: competition ELISA, one antibody concentration; competitor coated ILT4-Fc.
In assay [7] the target is recombinant soluble human HLA-G β2M MHC class I complex, trimer (human). The assay is described as above.
Assay [8] concerns the target recombinant soluble human HLA-G β2M MHC class I complex, monomer (human). Described as above.
Assay [9] addresses modified human HLA-G β2M MHC class I complex (HLA-G specific amino acids replaced by HLA-A consensus amino acids) (human). In words: SPR, reference antibody against degrafted HLA-G.

Take G233 (antibody): the Inhibition of ILT2 binding to Jeg3 cells in [1] was -55.8%. Moreover, the Kd in assay [2] was determined as 0.02 µM. The koff in assay [2] turned out to be 0.0037 s⁻¹. Further, the kon in assay [2] worked out at 180000 M⁻¹ s⁻¹. For the same substance, in [2], the t 1/2 stood at 3 min. In addition, the values for the % inhibition of ILT2 binding in assay [3], in [4] and in assay [5] were -132%, 3% and 12%, respectively. For the same substance, the % inhibition of ILT4 binding in assay [6] was -20%; in [7] it was 58%; in [8] it was -898%.

With MEM-G/11 (antibody), in assay [9], the Kd was 0.013 µM, the koff was 0.0012 s⁻¹, the kon worked out at 89000 M⁻¹ s⁻¹ and the t 1/2 came out at 10 min. In [2], the Kd is 0.012 µM, the koff was found to be 0.00085 s⁻¹, the kon is 74000 M⁻¹ s⁻¹ and the t 1/2 came out at 14 min.

Turning to MEM/G9 (antibody), the values for the Kd in assay [9] and in assay [2] were 0.3 µM and 0.0077 µM, respectively. Moreover, the koff was 0.036 s⁻¹ in assay [9] and 0.0011 s⁻¹ in assay [2]. Besides, the kon in assay [9] was 120000 M⁻¹ s⁻¹; in assay [2], 150000 M⁻¹ s⁻¹. Besides, the t 1/2 in assay [9] was found to be 0.3 min; in [2] it was 10 min. Besides, the Inhibition of ILT2 binding to Jeg3 cells in assay [1] is -27.9%. Moreover, the % inhibition of ILT2 binding in assay [3] is 1%; in assay [4], 4%; in [5], -442%. Further, the % inhibition of ILT4 binding is -44% in assay [6], -40% in [7] and -14% in assay [8].

As a reminder, the Kd is the constant that tells how readily two partners part at equilibrium. The term koff denotes the rate constant with which the complex falls apart. One may read the kon as the second-order rate constant of association.
